Assay results: publication PMC7340271 (IUCrJ, 2020)
Values joined by “and” are separate entries in the source; they are usually repeats but may differ in a detail not shown here. Identical values can stand only once.

Target: the molecule itself
Test: crystal structure

B1: N-terminal lipid-binding domain of Mycobacterium tuberculosis Wag31 (residues 2-60) (domain or fragment)
chain: PLTPADVHNVAFSKPPIGKRGYNEDEVDAFLDLVENELTRLIEENSDLRQRINELDQEL
notes: Assembly states reported: parallel coiled-coil dimer (asymmetric unit), tetramer ('dimer-of-dimers'); also called N-Wag31; N-terminal Wag31
stoichiometry N: 2 and 4
